For one molecule, pKd results are on record in PMC9482650, “Quantitative fragmentomics allow affinity mapping of interactomes” (Nature Communications, 2022).

Some targets named below: PDZRN4_2, Q6ZMN7; MAGI3_6, Q5TCQ9; NHERF2_1, Q15599; DLG5_2, Q8TDM6; CARD14, Q9BXL6; GIPC3, Q8TF64; DVL2, O14641; MAGI1_4, Q96QZ7; SDCBP_1, O00560; TJP1_1, Q07157; CNKSR3, Q6P9H4.
Holding throughout (assay): holdup assay
What all share (set-up): key: below the threshold = too weak to quantify, mostly under pKd 3.1 to 4
What all share (conditions): plain residues with an end cap or a label only (N-terminal biotin on a linker: ttds)

In the next assay the target is T1, PDZD2_4, O15018.
T1 sequence (O15018 723-823, limits assumed, looked up): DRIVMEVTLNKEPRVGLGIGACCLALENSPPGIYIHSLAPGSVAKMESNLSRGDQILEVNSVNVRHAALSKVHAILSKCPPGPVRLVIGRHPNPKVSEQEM

Another assay has as its target T2, MPDZ_11, O75970.
T2 sequence (O75970 1720-1817, limits assumed, looked up): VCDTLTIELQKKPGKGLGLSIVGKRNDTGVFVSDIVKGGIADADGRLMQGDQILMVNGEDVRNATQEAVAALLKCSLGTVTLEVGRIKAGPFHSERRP

The next assay has as its target T3, PTPN13_4, Q12923.
T3 sequence (Q12923 1783-1878, limits assumed, looked up): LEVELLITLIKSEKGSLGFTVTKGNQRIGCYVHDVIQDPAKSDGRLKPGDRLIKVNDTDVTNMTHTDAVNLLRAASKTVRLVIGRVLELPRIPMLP

For another assay, the target named is T4, MPP1, Q00013.
T4 sequence (Q00013 66-162, limits assumed, looked up): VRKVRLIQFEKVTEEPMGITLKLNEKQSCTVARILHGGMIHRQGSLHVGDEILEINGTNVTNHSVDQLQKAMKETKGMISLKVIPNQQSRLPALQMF

The target of another assay is T5, APBA3_2, O96018.
T5 sequence (O96018 480-570, limits assumed, looked up): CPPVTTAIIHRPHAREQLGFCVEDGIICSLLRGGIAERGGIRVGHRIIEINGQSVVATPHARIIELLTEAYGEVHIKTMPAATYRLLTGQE

The next assay concerns the target T6, GIPC1, O14908.
T6 sequence (O14908 128-223, limits assumed, looked up): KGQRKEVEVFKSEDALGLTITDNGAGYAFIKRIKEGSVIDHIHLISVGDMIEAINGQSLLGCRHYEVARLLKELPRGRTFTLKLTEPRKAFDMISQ

Another assay has as its target T7, MPDZ_3, O75970.
T7 sequence (O75970 372-473, limits assumed, looked up): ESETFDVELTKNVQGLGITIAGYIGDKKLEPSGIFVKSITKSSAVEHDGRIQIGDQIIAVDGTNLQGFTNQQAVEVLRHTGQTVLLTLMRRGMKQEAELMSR

Another assay has as its target T8, PDZD8, Q8NEN9.
T8 sequence (Q8NEN9 361-459, limits assumed, looked up): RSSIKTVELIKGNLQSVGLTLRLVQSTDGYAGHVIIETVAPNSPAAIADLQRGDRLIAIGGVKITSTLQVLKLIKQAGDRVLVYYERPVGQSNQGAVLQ

Another assay deals with T9, NHERF1_1, O14745.
T9 sequence (O14745 9-104, limits assumed, looked up): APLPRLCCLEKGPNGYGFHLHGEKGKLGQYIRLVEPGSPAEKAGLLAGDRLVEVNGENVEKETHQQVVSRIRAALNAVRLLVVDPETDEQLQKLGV

Another assay concerns the target T10, SHANK3, Q9BYB0.
T10 sequence (Q9BYB0 641-750, limits assumed, looked up): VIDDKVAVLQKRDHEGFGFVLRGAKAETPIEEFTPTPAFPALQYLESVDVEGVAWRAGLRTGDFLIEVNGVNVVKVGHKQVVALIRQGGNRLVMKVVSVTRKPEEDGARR

The target in another assay is T11, PARD6G, Q9BYG4.
T11 sequence (Q9BYG4 153-261, limits assumed, looked up): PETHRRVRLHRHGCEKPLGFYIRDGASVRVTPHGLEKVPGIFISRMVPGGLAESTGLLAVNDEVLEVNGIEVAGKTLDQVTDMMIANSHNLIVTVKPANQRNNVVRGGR

A further assay deals with T12, PDZD2_1, O15018.
T12 sequence (O15018 80-192, limits assumed, looked up): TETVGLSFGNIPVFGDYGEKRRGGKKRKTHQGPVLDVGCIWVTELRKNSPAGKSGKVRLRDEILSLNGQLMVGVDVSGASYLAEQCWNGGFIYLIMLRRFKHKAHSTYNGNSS

A further assay deals with T13, PDZRN3_2, Q9UPQ7.
T13 sequence (Q9UPQ7 414-513, limits assumed, looked up): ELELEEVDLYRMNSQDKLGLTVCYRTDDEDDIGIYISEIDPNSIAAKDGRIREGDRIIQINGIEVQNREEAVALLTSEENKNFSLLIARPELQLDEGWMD

Chain of NHERF2_1, Q15599 (Q15599 9-91): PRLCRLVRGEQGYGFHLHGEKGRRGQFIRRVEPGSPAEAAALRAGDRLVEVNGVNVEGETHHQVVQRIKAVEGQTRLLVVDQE
Chain of DVL2, O14641 (O14641 260-359): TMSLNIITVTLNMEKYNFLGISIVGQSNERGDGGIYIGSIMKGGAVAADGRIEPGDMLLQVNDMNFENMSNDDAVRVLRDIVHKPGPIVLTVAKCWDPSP
Chain of TJP1_1, Q07157 (Q07157 18-120): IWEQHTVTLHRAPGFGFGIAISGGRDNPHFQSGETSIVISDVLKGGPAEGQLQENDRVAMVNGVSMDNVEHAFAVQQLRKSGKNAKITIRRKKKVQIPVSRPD
Chain of PDZRN4_2, Q6ZMN7 (Q6ZMN7 389-498): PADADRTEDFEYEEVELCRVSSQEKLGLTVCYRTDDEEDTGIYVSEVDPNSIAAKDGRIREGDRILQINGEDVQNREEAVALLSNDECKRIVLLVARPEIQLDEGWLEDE
Chain of CARD14, Q9BXL6 (Q9BXL6 558-663): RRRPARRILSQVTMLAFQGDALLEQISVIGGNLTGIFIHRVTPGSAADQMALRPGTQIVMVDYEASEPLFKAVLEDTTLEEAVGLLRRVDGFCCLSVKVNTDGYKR
Chain of DLG5_2, Q8TDM6 (Q8TDM6 714-800): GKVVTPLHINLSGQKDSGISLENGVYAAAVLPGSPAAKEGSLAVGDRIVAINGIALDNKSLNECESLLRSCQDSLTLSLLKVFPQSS
Chain of CNKSR3, Q6P9H4 (Q6P9H4 203-303): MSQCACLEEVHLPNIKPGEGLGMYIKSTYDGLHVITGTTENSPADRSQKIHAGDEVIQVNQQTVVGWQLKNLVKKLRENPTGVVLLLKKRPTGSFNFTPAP
Chain of MAGI1_4, Q96QZ7 (Q96QZ7 other isoform, or with tags, fused parts or gaps): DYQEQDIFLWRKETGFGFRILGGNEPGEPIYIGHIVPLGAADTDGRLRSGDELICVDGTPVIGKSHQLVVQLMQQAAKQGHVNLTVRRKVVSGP
Chain of SDCBP_1, O00560 (O00560 111-198): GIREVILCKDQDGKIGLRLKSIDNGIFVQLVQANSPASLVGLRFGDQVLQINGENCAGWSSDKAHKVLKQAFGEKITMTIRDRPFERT
Chain of MAGI3_6, Q5TCQ9 (Q5TCQ9 1014-1103): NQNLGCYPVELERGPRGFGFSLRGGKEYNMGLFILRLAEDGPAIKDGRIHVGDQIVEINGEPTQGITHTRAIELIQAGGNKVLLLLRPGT
Chain of GIPC3, Q8TF64 (Q8TF64 107-202): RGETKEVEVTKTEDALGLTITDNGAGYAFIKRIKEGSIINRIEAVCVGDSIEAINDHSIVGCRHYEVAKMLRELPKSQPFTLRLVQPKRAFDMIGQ

On to RPLPRKVSQL [DOCK4, Q8N1I0], for which the pKd – broadly, the negative decadic logarithm of the Kd, by convention in mol/L – with PDZRN4_2, Q6ZMN7 was 4.14; in the assay with MAGI3_6, Q5TCQ9 it was “below the threshold”; with NHERF2_1, Q15599 it was “below the threshold”; in the assay with DLG5_2, Q8TDM6 it was “below the threshold”; with PDZD2_4, O15018, “below the threshold”; with MPDZ_11, O75970 it was “below the threshold”. Moreover, the pKd result with PTPN13_4, Q12923 is “below the threshold”; with MPP1, Q00013, 4.29; in the assay with APBA3_2, O96018, “below the threshold”; with GIPC1, O14908, “below the threshold”; with CARD14, Q9BXL6, “below the threshold”; with GIPC3, Q8TF64 it was 4.39. Also, the pKd result in the assay with DVL2, O14641 is recorded as “below the threshold”; with MPDZ_3, O75970, “below the threshold”; with PDZD8, Q8NEN9, “below the threshold”; with NHERF1_1, O14745 it was “below the threshold”; in the assay with MAGI1_4, Q96QZ7, “below the threshold”; in the assay with SDCBP_1, O00560 it was “below the threshold”. Also, the negative-log Kd (pKd) result is “below the threshold” in the assay with TJP1_1, Q07157; “below the threshold” with SHANK3, Q9BYB0; “below the threshold” with CNKSR3, Q6P9H4; “below the threshold” with PARD6G, Q9BYG4; “below the threshold” with PDZD2_1, O15018; “below the threshold” in the assay with PDZRN3_2, Q9UPQ7.
